B1: 1A7.gr.3 (antibody, V domains shown)
VH: EVQLVQSGAEVKKPGASVKVSCKASGYTFTDSYMSWVRQAPGQGLEWIGDMYPDNGDSSYNQKFRERVTLTVDTSTSTAYLELSSLRSEDTAVYYCVLAPRWYFSVWGQGTLVTVSS
VL: DIQMTQSPSSLSASVGDRVTITCRASQDISNYLNWYQQKPGKAPKLLIYYTSRLRSGVPSRFSGSGSGTDFTLTISSLQPEDFATYYCQQGHTLPPTFGQGTKVEIK
notes: human Fc
B2: 1A7.gr.4 (antibody, V domains shown)
VH: EVQLVQSGAEVKKPGASVKVSCKASGYTFTDSYMSWVRQAPGQGLEWIGDMYPDNGDSSYNQKFRERVTITVDTSTSTAYLELSSLRSEDTAVYYCVLAPRWYFSVWGQGTLVTVSS
VL: DIQMTQSPSSLSASVGDRVTITCRASQDISNYLNWYQQKPGKTVKLLIYYTSRLRSGVPSRFSGSGSGTDFTLTISSLQPEDFATYYCQQGHTLPPTFGQGTKVEIK
notes: human Fc
B3: 1A7.gr.5′ (antibody, V domains shown)
VH: EVQLVQSGAEVKKPGASVKVSCKASGYTFTDSYMSWVRQAPGQGLEWIGDMYPDNGDSSYNQKFRERVTLTVDTSTSTAYLELSSLRSEDTAVYYCVLAPRWYFSVWGQGTLVTVSS
VL: DIQMTQSPSSLSASVGDRVTITCRASQDISNYLNWYQQKPGKTVKLLIYYTSRLRSGVPSRFSGSGSGTDFTLTISSLQPEDFATYYCQQGHTLPPTFGQGTKVEIK
notes: human Fc
B4: 1A7.gr.6 (antibody, V domains shown)
VH: EVQLVQSGAEVKKPGASVKVSCKASGYTFTDSYMSWVRQAPGQGLEWIGDMYPDNGDSSYNQKFRERVTITVDTSTSTAYLELSSLRSEDTAVYYCVLAPRWYFSVWGQGTLVTVSS
VL: DIQMTQSPSSLSASVGDRVTITCRASQDISNYLNWYQQKPGKTVKLLIYYTSRLRSGVPSRFSGSGSGKDYTLTISSLQPEDFATYFCQQGHTLPPTFGQGTKVEIK
notes: human Fc
B5: 1A7.gr.7′ (antibody, V domains shown)
VH: EVQLVQSGAEVKKPGASVKVSCKASGYTFTDSYMSWVRQAPGQGLEWIGDMYPDNGDSSYNQKFRERVTLTVDTSTSTAYLELSSLRSEDTAVYYCVLAPRWYFSVWGQGTLVTVSS
VL: DIQMTQSPSSLSASVGDRVTITCRASQDISNYLNWYQQKPGKTVKLLIYYTSRLRSGVPSRFSGSGSGKDYTLTISSLQPEDFATYFCQQGHTLPPTFGQGTKVEIK
notes: human Fc
B6: 3C8.gr.1 (antibody, V domains shown)
VH: EVQLVQSGAEVKKPGASVKVSCKASGYAFTNYLIEWVRQAPGQGLEWIGVINPGSGDTYYSEKFKGRVTITRDTSTSTAYLELSSLRSEDTAVYYCARDRLDYWGQGTLVTVSS
VL: DIQMTQSPSSLSASVGDRVTITCHASQDISSYIVWYQQKPGKAPKLLIYHGTNLEDGVPSRFSGSGSGTDFTLTISSLQPEDFATYYCVHYAQFPYTFGQGTKVEIK
notes: human Fc
B7: 3C8.gr.2 (antibody, V domains shown)
VH: EVQLVQSGAEVKKPGASVKVSCKASGYAFTNYLIEWVRQAPGQGLEWIGVINPGSGDTYYSEKFKGRVTITADTSTSTAYLELSSLRSEDTAVYYCARDRLDYWGQGTLVTVSS
VL: DIQMTQSPSSLSASVGDRVTITCHASQDISSYIVWYQQKPGKAPKLLIYHGTNLEDGVPSRFSGSGSGTDFTLTISSLQPEDFATYYCVHYAQFPYTFGQGTKVEIK
notes: human Fc
B8: 3C8.gr.3 (antibody, V domains shown)
VH: EVQLVQSGAEVKKPGASVKVSCKASGYAFTNYLIEWVRQAPGQGLEWIGVINPGSGDTYYSEKFKGRVTLTADTSTSTAYLELSSLRSEDTAVYYCARDRLDYWGQGTLVTVSS
VL: DIQMTQSPSSLSASVGDRVTITCHASQDISSYIVWYQQKPGKAPKLLIYHGTNLEDGVPSRFSGSGSGTDFTLTISSLQPEDFATYYCVHYAQFPYTFGQGTKVEIK
notes: human Fc
B9: 3C8.gr.4 (antibody, V domains shown)
VH: EVQLVQSGAEVKKPGASVKVSCKASGYAFTNYLIEWVRQAPGQGLEWIGVINPGSGDTYYSEKFKGRVTITADTSTSTAYLELSSLRSEDTAVYYCARDRLDYWGQGTLVTVSS
VL: DIQMTQSPSSLSASVGDRVTITCHASQDISSYIVWYQQKPGKSFKGLIYHGTNLEDGVPSRFSGSGSGTDFTLTISSLQPEDFATYYCVHYAQFPYTFGQGTKVEIK
notes: human Fc
B10: 3C8.gr.5.QG (antibody, V domains shown)
VH: EVQLVQSGAEVKKPGASVKVSCKASGYAFTNYLIEWVRQAPGQGLEWIGVINPGSGDTYYSEKFKGRVTLTADTSTSTAYLELSSLRSEDTAVYYCARDRLDYWGQGTLVTVSS
VL: DIQMTQSPSSLSASVGDRVTITCHASQDISSYIVWYQQKPGKSFKGLIYHGTNLEQGVPSRFSGSGSGTDFTLTISSLQPEDFATYYCVHYAQFPYTFGQGTKVEIK
B11: 3C8.gr.6 (antibody, V domains shown)
VH: EVQLVQSGAEVKKPGASVKVSCKASGYAFTNYLIEWVRQAPGQGLEWIGVINPGSGDTYYSEKFKGRVTITADTSTSTAYLELSSLRSEDTAVYYCARDRLDYWGQGTLVTVSS
VL: DIQMTQSPSSLSASVGDRVTITCHASQDISSYIVWYQQKPGKSFKGLIYHGTNLEDGVPSRFSGSGSGADYTLTISSLQPEDFATYYCVHYAQFPYTFGQGTKVEIK
notes: human Fc
B12: 3C8.gr.7 (antibody, V domains shown)
VH: EVQLVQSGAEVKKPGASVKVSCKASGYAFTNYLIEWVRQAPGQGLEWIGVINPGSGDTYYSEKFKGRVTLTADTSTSTAYLELSSLRSEDTAVYYCARDRLDYWGQGTLVTVSS
VL: DIQMTQSPSSLSASVGDRVTITCHASQDISSYIVWYQQKPGKSFKGLIYHGTNLEDGVPSRFSGSGSGADYTLTISSLQPEDFATYYCVHYAQFPYTFGQGTKVEIK
notes: human Fc
B13: 3C8.gr.8 (antibody, V domains shown)
VH: EVQLVQSGAEVKKPGASVKVSCKASGYAFTNYLIEWVRQAPGQGLEWIGVINPGSGDTYYSEKFKGRVTLTRDTSTSTAYLELSSLRSEDTAVYYCARDRLDYWGQGTLVTVSS
VL: DIQMTQSPSSLSASVGDRVTITCHASQDISSYIVWYQQKPGKSFKGLIYHGTNLEDGVPSRFSGSGSGTDFTLTISSLQPEDFATYYCVHYAQFPYTFGQGTKVEIK
notes: human Fc
B14: 3C8.gr.9 (antibody, V domains shown)
VH: EVQLVQSGAEVKKPGASVKVSCKASGYAFTNYLIEWVRQAPGQGLEWIGVINPGSGDTYYSEKFKGRVTLTRDTSTSTAYLELSSLRSEDTAVYYCARDRLDYWGQGTLVTVSS
VL: DIQMTQSPSSLSASVGDRVTITCHASQDISSYIVWYQQKPGKSPKLLIYHGTNLEDGVPSRFSGSGSGTDFTLTISSLQPEDFATYYCVHYAQFPYTFGQGTKVEIK
notes: human Fc

Target: T1, Human OX40 (Sino Biological Inc) (human, UniProt P43489 29-216, limits assumed)
T1 construct: Bought soluble protein used as SPR analyte; also called huOX40
T1 sequence: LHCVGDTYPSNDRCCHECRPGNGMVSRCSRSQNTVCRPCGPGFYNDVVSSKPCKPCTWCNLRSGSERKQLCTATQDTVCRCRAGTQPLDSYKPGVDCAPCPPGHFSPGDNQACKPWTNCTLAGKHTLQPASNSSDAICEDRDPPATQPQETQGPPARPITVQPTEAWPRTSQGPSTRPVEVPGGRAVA
Test: SPR (Biacore), antibody captured via anti-human Fc, huOX40 analyte
Method: The binding kinetics of the anti-OX40 antibodies was measured using surface plasmon resonance (SPR) on a Biacore 3000 instrument (GE Healthcare). Anti-human Fc (GE Healthcare) was immobilized on a CM5 sensor chip via amine-based coupling using manufacturer provided protocol. Anti-OX40 antibody was captured at a level of 300-400 resonance units (RU). Antibody binding was measured to human OX40 (Sino Biological Inc). Two-fold concentration series of huOX40 with a range of either 18.75 to 300 nM or 6.25 to 200 nM were used for the experiments. Sensorgrams for binding of OX40 were recorded using an injection time of 2 minutes with a flow rate of 30 μl/min, at a temperature of 25° C., and with a running buffer of 10 mM HEPES, pH 7.4, 150 mM NaCl, and 0.005% Tween 20. After injection, disassociation of the ligand from the antibody was monitored for 600 seconds in running buffer. The surface was regenerated between binding cycles with a 40 μl injection of 3 M Magnesium Chloride.

**Q.** For B1, which Kd is on record?
**A.** 0.525 nM

**Q.** And the koff?
**A.** 0.000243 s⁻¹

**Q.** What about the kon of the same binder?
**A.** 462000 M⁻¹ s⁻¹

**Q.** How did the Kd turn out when B2 was run?
**A.** 0.472 nM

**Q.** And the koff?
**A.** 0.000163 s⁻¹

**Q.** And the kon?
**A.** 345000 M⁻¹ s⁻¹

**Q.** How did the Kd turn out when B3 was run?
**A.** 1.77 nM

**Q.** And the koff?
**A.** 0.000492 s⁻¹

**Q.** What about the kon of the same binder?
**A.** 278000 M⁻¹ s⁻¹

**Q.** Which results are given for B4?
**A.** Kd: 0.177 nM; koff: 6.93e-05 s⁻¹; kon: 391000 M⁻¹ s⁻¹

**Q.** With B5 as the binder, how does the Kd read?
**A.** 0.36 nM

**Q.** What about the koff of the same binder?
**A.** 0.000145 s⁻¹

**Q.** And the kon?
**A.** 401000 M⁻¹ s⁻¹

**Q.** For B6, which Kd is on record?
**A.** 6.49 nM

**Q.** What about the koff of the same binder?
**A.** 0.00267 s⁻¹

**Q.** And the kon?
**A.** 412000 M⁻¹ s⁻¹

**Q.** Which Kd does the source give for B7 here?
**A.** 5.48 nM

**Q.** What about the koff of the same binder?
**A.** 0.00255 s⁻¹

**Q.** And the kon?
**A.** 466000 M⁻¹ s⁻¹

**Q.** What does the source list for B8?
**A.** Kd: 3.94 nM; koff: 0.00196 s⁻¹; kon: 498000 M⁻¹ s⁻¹

**Q.** Which results are given for B9?
**A.** Kd: 2.2 nM; koff: 0.000923 s⁻¹; kon: 420000 M⁻¹ s⁻¹

**Q.** With B10 as the binder, how does the Kd read?
**A.** 1.17 nM

**Q.** What about the koff of the same binder?
**A.** 0.000534 s⁻¹

**Q.** What about the kon of the same binder?
**A.** 457000 M⁻¹ s⁻¹

**Q.** For B11, which Kd is on record?
**A.** 3.08 nM

**Q.** And the koff?
**A.** 0.00122 s⁻¹

**Q.** And the kon?
**A.** 395000 M⁻¹ s⁻¹

**Q.** Which results are given for B12?
**A.** Kd: 1.41 nM; koff: 0.000685 s⁻¹; kon: 486000 M⁻¹ s⁻¹

**Q.** Which results are given for B13?
**A.** Kd: 2.16 nM; koff: 0.000709 s⁻¹; kon: 329000 M⁻¹ s⁻¹

**Q.** How did the Kd turn out when B14 was run?
**A.** 4.28 nM

**Q.** What about the koff of the same binder?
**A.** 0.00173 s⁻¹

**Q.** And the kon?
**A.** 404000 M⁻¹ s⁻¹

From patent US20150307617A1 (Genentech, published 2015)
